{"source": "patent US20060110789", "key": {"[1]": {"target": "T1, (5)M3+TE (module 3 of DEBS with the N-terminal linker of module 5, fused to thioesterase), Q03132", "T1 chain": "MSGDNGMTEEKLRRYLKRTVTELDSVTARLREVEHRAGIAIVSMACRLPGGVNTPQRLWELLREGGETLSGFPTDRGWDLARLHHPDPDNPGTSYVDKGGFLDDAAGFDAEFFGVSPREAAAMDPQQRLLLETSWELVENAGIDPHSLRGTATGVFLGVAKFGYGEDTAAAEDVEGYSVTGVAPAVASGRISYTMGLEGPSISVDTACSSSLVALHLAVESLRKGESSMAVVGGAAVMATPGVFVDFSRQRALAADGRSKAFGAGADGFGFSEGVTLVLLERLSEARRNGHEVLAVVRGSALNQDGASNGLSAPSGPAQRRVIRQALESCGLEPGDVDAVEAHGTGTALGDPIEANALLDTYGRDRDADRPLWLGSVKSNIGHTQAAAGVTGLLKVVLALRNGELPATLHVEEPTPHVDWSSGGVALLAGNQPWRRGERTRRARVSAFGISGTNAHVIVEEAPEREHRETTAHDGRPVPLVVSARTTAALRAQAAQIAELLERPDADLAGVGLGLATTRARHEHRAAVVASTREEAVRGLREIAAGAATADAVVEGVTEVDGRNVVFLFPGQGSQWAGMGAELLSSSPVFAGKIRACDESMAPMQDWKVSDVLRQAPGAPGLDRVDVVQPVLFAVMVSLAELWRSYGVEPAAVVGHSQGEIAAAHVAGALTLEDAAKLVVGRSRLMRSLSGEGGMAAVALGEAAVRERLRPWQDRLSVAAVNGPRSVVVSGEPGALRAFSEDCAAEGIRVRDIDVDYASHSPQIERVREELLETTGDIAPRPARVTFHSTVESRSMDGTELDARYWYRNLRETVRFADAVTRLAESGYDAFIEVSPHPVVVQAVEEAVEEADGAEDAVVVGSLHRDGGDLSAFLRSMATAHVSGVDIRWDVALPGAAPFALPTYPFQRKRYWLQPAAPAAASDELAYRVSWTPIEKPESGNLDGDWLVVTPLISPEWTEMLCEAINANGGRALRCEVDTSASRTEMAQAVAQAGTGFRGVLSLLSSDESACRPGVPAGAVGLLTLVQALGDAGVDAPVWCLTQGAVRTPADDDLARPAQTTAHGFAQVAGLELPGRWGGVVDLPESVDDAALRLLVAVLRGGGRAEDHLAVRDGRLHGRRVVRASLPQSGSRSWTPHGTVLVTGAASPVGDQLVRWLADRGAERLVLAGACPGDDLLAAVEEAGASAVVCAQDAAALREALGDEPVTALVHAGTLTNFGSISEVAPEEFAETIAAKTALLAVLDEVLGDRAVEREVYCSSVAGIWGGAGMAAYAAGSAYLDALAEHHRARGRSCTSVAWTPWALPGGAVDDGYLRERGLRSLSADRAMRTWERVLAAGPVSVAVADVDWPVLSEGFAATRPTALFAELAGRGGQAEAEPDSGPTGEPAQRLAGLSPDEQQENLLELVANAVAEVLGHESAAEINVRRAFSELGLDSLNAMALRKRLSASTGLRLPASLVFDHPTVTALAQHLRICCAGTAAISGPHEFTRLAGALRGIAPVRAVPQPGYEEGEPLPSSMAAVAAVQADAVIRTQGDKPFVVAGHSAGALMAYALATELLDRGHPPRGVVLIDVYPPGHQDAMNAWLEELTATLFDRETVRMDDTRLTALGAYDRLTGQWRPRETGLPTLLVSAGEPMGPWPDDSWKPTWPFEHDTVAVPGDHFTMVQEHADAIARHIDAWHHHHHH"}, "[2]": {"target": "T2, M3+TE (module 3 of DEBS with its own N-terminal linker, fused to thioesterase), Q03132", "T2 chain": "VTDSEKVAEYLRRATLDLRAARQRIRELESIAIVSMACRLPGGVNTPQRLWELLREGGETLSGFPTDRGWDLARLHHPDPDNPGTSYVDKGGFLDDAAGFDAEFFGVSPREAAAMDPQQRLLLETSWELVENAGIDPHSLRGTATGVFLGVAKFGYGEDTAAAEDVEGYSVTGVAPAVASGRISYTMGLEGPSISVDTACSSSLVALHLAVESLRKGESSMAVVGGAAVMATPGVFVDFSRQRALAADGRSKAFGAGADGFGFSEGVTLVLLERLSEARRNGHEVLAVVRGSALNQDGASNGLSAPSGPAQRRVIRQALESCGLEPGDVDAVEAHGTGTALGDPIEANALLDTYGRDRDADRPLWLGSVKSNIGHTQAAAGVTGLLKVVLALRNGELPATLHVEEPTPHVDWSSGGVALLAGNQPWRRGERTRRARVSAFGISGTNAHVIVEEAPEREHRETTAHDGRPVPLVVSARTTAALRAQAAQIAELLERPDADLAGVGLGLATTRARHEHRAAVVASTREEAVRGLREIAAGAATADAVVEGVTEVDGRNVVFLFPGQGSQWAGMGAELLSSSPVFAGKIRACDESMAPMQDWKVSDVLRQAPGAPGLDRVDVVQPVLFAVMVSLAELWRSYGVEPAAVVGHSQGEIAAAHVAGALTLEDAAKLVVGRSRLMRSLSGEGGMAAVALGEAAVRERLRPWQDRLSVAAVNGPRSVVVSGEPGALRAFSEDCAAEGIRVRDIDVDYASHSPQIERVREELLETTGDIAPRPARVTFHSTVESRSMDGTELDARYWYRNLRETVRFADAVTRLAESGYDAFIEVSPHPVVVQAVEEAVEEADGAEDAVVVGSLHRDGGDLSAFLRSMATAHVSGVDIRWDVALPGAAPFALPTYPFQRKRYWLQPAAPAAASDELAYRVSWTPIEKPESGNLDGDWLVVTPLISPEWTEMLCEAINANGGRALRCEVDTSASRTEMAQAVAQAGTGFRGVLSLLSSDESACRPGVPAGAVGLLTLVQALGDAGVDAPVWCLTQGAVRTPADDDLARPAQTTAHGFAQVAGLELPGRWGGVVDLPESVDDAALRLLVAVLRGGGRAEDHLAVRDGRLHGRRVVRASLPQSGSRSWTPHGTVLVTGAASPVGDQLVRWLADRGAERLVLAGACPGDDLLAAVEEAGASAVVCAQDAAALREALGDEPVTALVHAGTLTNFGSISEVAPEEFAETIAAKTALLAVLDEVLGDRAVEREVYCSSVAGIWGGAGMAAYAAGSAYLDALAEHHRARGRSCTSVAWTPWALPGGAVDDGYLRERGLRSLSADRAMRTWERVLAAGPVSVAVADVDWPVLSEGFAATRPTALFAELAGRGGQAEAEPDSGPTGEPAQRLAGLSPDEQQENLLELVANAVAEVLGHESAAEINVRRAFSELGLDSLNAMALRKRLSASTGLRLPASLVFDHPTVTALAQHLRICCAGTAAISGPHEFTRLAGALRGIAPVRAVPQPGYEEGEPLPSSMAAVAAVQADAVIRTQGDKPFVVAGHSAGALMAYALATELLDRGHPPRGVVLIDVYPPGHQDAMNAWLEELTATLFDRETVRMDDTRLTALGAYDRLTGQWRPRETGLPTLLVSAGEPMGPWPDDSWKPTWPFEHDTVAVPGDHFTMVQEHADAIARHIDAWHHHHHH"}}}
{"protein": "M2(4) (module 2 of DEBS with the C-terminal linker of module 4) (protein) MSGDNGMTEEKLRRYLKRTVTELDSVTARLREVEHRAGIAIVGMACRLPGEVDSPERLWELITSGRDSAAEVPDDRGWVPDELMASDAAGTRAHGNFMAGAGDFDAAFFGISPREALAMDPQQRQALETTWEALESAGIPPETLRGSDTGVFVGMSHQGYATGRPRPEDGVDGYLLTGNTASVASGRIAYVLGLEGPALTVDTACSSSLVALHTACGSLRDGDCGLAVAGGVSVMAGPEVFTEFSRQGALSPDGRCKPFSDEADGFGLGEGSAFVVLQRLSDARREGRRVLGVVAGSAVNQDGASNGLSAPSGVAQQRVIRRAWARAGITGADVAVVEAHGTGTRLGDPVEASALLATYGKSRGSSGPVLLGSVKSNIGHAQAAAGVAGVIKVLLGLERGVVPPMLCRGERSGLIDWSSGEIELADGVREWSPAADGVRRAGVSAFGVSGTNAHVIIAEPPEPEPVPQPRRMLPATGVVPVVLSARTGAALRAQAGRLADHLAAHPGIAPADVSWTMARARQHFEERAAVLAADTAEAVHRLRAVADGAVVPGVVTGSASDGGSVFVFPGQGAQWEGMARELLPVPVFAESIAECDAVLSEVAGFSVSEVLEPRPDAPSLERVDVVQPVLFAVMVSLARLWRACGAVPSAVIGHSQGEIAAAVVAGALSLEDGMRVVARRSRAVRAVAGRGSMLSVRGGRSDVEKLLADDSWTGRLEVAAVNGPDAVVVAGDAQAAREFLEYCEGVGIRARAIPVDYASHTAHVEPVRDELVQALAGITPRRAEVPFFSTLTGDFLDGTELDAGYWYRNLRHPVEFHSAVQALTDQGYATFIEVSPHPVLASSVQETLDDAESDAAVLGTLERDAGDADRFLTALADAHTRGVAVDWEAVLGRAGLVDLPGYPFQGKRFWLLPDRTTPRDELDGWFYRVDWTEVPRSEPAALRGRWLVVVPEGHEEDGWTVEVRSALAEAGAEPEVTRGVGGLVGDCAGVVSLLALEGDGAVQTLVLVRELDAEGIDAPLWTVTFGAVDAGSPVARPDQAKLWGLGQVASLERGPRWTGLVDLPHMPDPELRGRLTAVLAGSEDQVAVRADAVRARRLSPAHVTATSEYAVPGGTILVTGGTAGLGAEVARWLAGRGAEHLALVSRRGPDTEGVGDLTAELTRLGARVSVHACDVSSREPVRELVHGLIEQGDVVRGVVHAAGLPQQVAINDMDEAAFDEVVAAKAGGAVHLDELCSDAELFLLFSSGAGVWGSARQGAYAAGNAFLDAFARHRRGRGLPATSVAWGLWAAGGMTGDEEAVSFLRERGVRAMPVPRALAALDRVLASGETAVVVTDVDWPAFAESYTAARPRPLLDRIVTTAPSERAGEPETESLRDRLAGLPRAERTAELVRLVRTSTATVLGHDDPKAVRATTPFKELGFDSLAAVRLRNLLNAATGLRLPSTLVFDHPNASAVAGFLDFAASPAVDIGDRLDELEKALEALSAEDGHDDVGQRLESLLRRWNSRRADAPSTSAISEDASDDELFSMLDQRFGGGEDL", "values": [{"measurement": "KM, fold increase against the natural linker pair (M2 with M3+TE)", "setting": "[1]", "result": "the increase in KM value upon swapping in the alternate linker pair is a more modest 2-fold"}, {"measurement": "kcat of tetraketide lactone 2 synthesis", "setting": "[1]", "result": "kcat of 0.74±0.06 min^-1"}, {"measurement": "highest rate constant of tetraketide lactone 2 formation (mismatched linkers)", "setting": "[2]", "result": "in the range of 0.02-0.03 min^-1"}]}
